Measured values taken from article PMC10397247.
Each block holds one binder with its values, some of them ahead of it.

Experiments:
Experiment in all cases: two-hybrid library CCmax;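 also: natural log of median RNA to DNA barcode read ratio; higher means stronger binding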
[1] = target: T1, 4H317-AA; details: mean of both orientations
T1 chain: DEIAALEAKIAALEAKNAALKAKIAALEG

[2] = target: T2, 4H881-AA
T2 chain: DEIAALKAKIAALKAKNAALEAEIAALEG

[3] = target: T3, 4H3844-AA; details: mean of both orientations
T3 chain: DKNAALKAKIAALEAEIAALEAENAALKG

[4] = target: T4, 4H454-AA; details: mean of both orientations
T4 chain: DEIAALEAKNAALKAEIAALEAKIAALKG

[5] = target: T5, 4H335-AA; details: mean of both orientations
T5 chain: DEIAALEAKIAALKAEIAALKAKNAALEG

[6] = target: T6, 4H2837-AA; details: mean of both orientations
T6 chain: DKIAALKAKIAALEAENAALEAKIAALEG

[7] = target: T7, 4H3343-AA; details: mean of both orientations
T7 chain: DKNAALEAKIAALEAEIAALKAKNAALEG

[8] = target: T8, 4H2949-AA; details: mean of both orientations
T8 chain: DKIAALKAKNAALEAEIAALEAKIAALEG

[9] = target: T9, 4H342-AA; details: mean of both orientations
T9 chain: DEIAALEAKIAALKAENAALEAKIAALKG

[10] = target: T10, 4H566-AA; details: mean of both orientations
T10 chain: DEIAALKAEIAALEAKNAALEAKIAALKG

[11] = target: T11, 4H429-AA; details: mean of both orientations
T11 chain: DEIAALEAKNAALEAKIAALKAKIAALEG

[12] = target: T12, 4H717-AA; details: mean of both orientations
T12 chain: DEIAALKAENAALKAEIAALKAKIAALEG

[13] = target: T13, 4H2617-AA; details: mean of both orientations
T13 chain: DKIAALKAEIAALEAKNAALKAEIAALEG

[14] = target: T14, 4H2642-AA; details: mean of both orientations
T14 chain: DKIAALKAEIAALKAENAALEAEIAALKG

[15] = target: T15, 4H794-AA; details: mean of both orientations
T15 chain: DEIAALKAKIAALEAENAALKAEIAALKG

[16] = target: T16, 4H3627-AA; details: mean of both orientations
T16 chain: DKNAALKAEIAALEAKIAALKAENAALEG

[17] = target: T17, 4H2729-AA; details: mean of both orientations
T17 chain: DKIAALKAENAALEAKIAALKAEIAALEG

[18] = target: T18, 4H2754-AA; details: mean of both orientations
T18 chain: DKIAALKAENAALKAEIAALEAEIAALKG

[19] = target: T19, 4H993-AA; details: mean of both orientations
T19 chain: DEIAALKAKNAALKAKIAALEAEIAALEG

[20] = target: T20, 4H780-AA; details: mean of both orientations
T20 chain: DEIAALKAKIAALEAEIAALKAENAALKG

[21] = target: T21, 4H3427-AA; details: mean of both orientations
T21 chain: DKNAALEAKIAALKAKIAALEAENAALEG

[22] = target: T22, 4H2575-AA
T22 chain: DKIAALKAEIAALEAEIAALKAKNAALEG

[23] = target: T23, 4H906-AA; details: mean of both orientations
T23 chain: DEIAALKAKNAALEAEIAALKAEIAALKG

[24] = target: T24, 4H3921-AA; details: mean of both orientations
T24 chain: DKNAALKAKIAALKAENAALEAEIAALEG

[25] = target: T25, 4H3112-AA; details: mean of both orientations
T25 chain: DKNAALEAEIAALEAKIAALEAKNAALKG

[26] = target: T26, 4H2944-AA; details: mean of both orientations
T26 chain: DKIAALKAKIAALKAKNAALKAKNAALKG

[27] = target: T27, 4H605-AA; details: mean of both orientations
T27 chain: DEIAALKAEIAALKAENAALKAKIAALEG

[28] = target: T28, 4H3655-AA; details: mean of both orientations
T28 chain: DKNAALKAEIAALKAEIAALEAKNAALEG

[29] = target: T29, 4H678-AA; details: mean of both orientations
T29 chain: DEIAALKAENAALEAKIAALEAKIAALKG

[30] = target: T30, APC9182-AA; details: mean of both orientations
T30 chain: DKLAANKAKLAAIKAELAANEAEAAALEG

[31] = target: T31, APC4336-AA
T31 chain: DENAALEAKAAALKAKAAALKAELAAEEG

[32] = target: T32, APC8401-AA; details: mean of both orientations
T32 chain: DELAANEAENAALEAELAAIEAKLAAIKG

[33] = target: T33, APC9291-AA; details: mean of both orientations
T33 chain: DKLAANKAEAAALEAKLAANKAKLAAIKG

[34] = target: T34, APC5009-AA; details: mean of both orientations
T34 chain: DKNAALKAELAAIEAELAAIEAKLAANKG

[35] = target: T35, APC7524-AA; details: mean of both orientations
T35 chain: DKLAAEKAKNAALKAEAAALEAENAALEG

[36] = target: T36, APC6088-AA; details: mean of both orientations
T36 chain: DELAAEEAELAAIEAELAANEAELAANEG

[37] = target: T37, APC9141-AA; details: mean of both orientations
T37 chain: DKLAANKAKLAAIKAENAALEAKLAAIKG

[38] = target: T38, APC542-AA; details: mean of both orientations
T38 chain: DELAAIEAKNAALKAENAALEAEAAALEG

[39] = target: T39, APC5531-AA; details: mean of both orientations
T39 chain: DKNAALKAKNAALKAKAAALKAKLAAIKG

[40] = target: T40, APC8516-AA; details: mean of both orientations
T40 chain: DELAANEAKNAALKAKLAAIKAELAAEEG

[41] = target: T41, APC9806-AA; details: mean of both orientations
T41 chain: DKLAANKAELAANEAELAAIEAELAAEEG

interaction score [1]: 0.149
interaction score [2]: -0.902
interaction score [3]: -0.532
interaction score [4]: 1.03
interaction score [5]: 1.88
interaction score [6]: -1.05
interaction score [7]: -0.0872
interaction score [8]: -0.954
interaction score [9]: 1.14
interaction score [10]: -1.21
interaction score [11]: -0.196
interaction score [12]: -1.25
interaction score [13]: 0.75
interaction score [14]: -1.2
interaction score [15]: -1.27
interaction score [16]: 0.318
interaction score [17]: 0.467
interaction score [18]: -1.28
interaction score [19]: -0.15
interaction score [20]: 0.14
interaction score [21]: 0.849
interaction score [22]: 1.9
interaction score [23]: -1.56
interaction score [24]: -1.45
interaction score [25]: -0.383
interaction score [26]: -0.604
interaction score [27]: -1.27
interaction score [28]: -0.814
interaction score [29]: -0.968
Binder: DKIAALKAEIAALEAEIAALKAKNAALEG [4H2575-AA]

interaction score [30]: -1.89
interaction score [31]: -3.13
interaction score [32]: -1.59
interaction score [33]: -2.36
interaction score [34]: 1.2
interaction score [35]: -1.86
interaction score [36]: -1.93
interaction score [37]: -2.48
interaction score [38]: -2.08
interaction score [39]: -2.38
interaction score [40]: -1.7
interaction score [41]: -1.53
Binder: DENAALEAKAAALKAKAAALKAELAAEEG [APC4336-AA]
